The nature of one data set: in vitro. Particulars: human, 50% human plasma (pooled, sodium heparin) in PBS, pH 7.4.
Data set [1] deals with Bacillus subtilis ATCC 6633. The experiment in a line: microbe, parasite or virus in culture. Format: cell-based. How it is done: All compounds were dissolved in H2O. Bacillus subtilis ATCC® 6633™ NRS-231 was cultured in MHB at 37 °C for 48 h. A sample of each culture was then diluted 40-fold in fresh MHB and incubated at 37 °C for 18 h. Compounds were added to each row of 96-well NBS plates (NBS, Corning 3641), in duplicate. The tripeptide N,N΄-diacetyl-L-Lys-D-Ala-D-Ala was serially diluted twofold across the compound-containing wells from 6400 to 3 µg mL^−1. To this the resultant mid-log phase cultures were diluted to the final concentration of 5 × 10^5 CFU mL^−1, then added to wells of the compound-containing plates. All the plates were covered and incubated at 37 °C for 24 h.

Data set [2] can be described thus: Cytotoxicity MTT assay. Particulars: human. Format: cell-based, human. In general terms: Tetrazolium dyes change colour on reduction, which living cells bring about.
Data set [3] can be described thus: Critical micelle concentration assay. Type of data set: physicochemical. The note with it: 0.2 M NaCl, DPH. How it is done:
CMCs were determined as previously described[46] with a higher throughput modification. Briefly, a cascade dilution of each antibiotic was performed in a low binding polypropylene V-bottom shaped 96-well plates in the presence of 0.2 M NaCl solution across 12 concentrations ranging from 1000 to 0.1 μM, except the control melittin (100 to 0.01 μM). An identical cascade dilution was performed for the neutral detergent Triton X-100 and the anionic detergent sodium dodecyl sulphate (SDS) starting from 0.1% down to 0.00001% (vol:vol for Triton X-100 and wt:vol for SDS). An aliquot of […] (DPH) in DMSO was added in each well to yield the final DPH concentration of 5 μM. The reaction mixtures were mixed for 30 s and transferred in horizontal triplicate (25 μL per well) into a black falcon 384-well plate. The 384-well plate was then sealed, wrapped up in aluminium foil and incubated for 30 min at room temperature. The fluorescence intensity was monitored in real time using a BMG Labtech PolarStar Omega multimode reader fitted with 360-10 and 430-10 excitation and emission filters respectively, at an excitation wavelength of 360 nm and an emission wavelength of 430 nm.

The conditions of data set [4]: 37 °C, 20 µM.
Method: (§2) Briefly, test compounds (20 μM) were prepared from a 0.2 mM H2O stock solution (40 μL in 400 μL assay volume) except eucatropine, which was 300 μg mL^−1 in 100% DMSO (10 μL in 400 μL assay volume equivalent to 23 μM). The precipitating solution was prepared by adding 5 μL of 10 mM carbutamide in DMSO to 100 mL acetonitrile (final concentration: 135.5 ng mL^−1 or 0.5 μM carbutamide). The human plasma sample (pooled normal human plasma sodium heparin anticoagulant, 2 µL, Cat No.: [sequence], BioReclamation) and phosphate-buffer saline (PBS, pH 7.4 isotonic) were pre-heated at 37 °C for 30 min. 40 μL of test compounds (0.2 mM) were added to protein-low binding Eppendorf tubes, 160 μL of buffer was added, and the mixture was vortexed. For eucatropine, 10 μL of eucatropine (300 μg mL^−1) was added to a protein-low binding Eppendorf tube, 190 μL of buffer was added, and the mixture was vortexed. In each case, 200 μL of plasma was added and the resultant mixture vortexed. For the initial time point (reaction time t = 0 h), 50 μL of sample was immediately transferred into a protein-low binding Eppendorf tube and quenched with 150 μL of the ice-cold precipitating solution, followed by vortexing and subsequent storage at 4 °C. For the remaining time points, the plasma solution was incubated and shaken (150 rpm) at 37 °C. 50 μL aliquots were collected at time points of 0, 1, 3, 6 and 24 h and quenched with 150 μL the ice-cold precipitating solution. All samples were placed in a 4 °C fridge for 30 min then centrifuged at 14,000 × g for 8 min at 4 °C. The supernatant (100 μL) was transferred to a glass vial insert and stored at 4 °C until LC-MS/MS analysis. The percentage of test compounds remaining at the individual time points relative to sample at time point 0 h were reported.
Data set [5] has as its system Methicillin-resistant S. aureus ATCC 43300. Put plainly: microbe, parasite or virus in culture. Particulars: ATCC 43300, 24 h. Put shortly:
(§1)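 Broth microdilution in Mueller Hinton broth with twofold serial dilutions of compound from 8 to 0.003 µg mL^−1.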

Data set [6] concerns Vancomycin-intermediate S. aureus NRS1. The experiment in a line: microbe, parasite or virus in culture. The note with it: Vancomycin-intermediate NRS1. Summed up: as §1
The test system of data set [7] is Multi-drug-resistant S. pneumoniae ATCC 700677. The experiment in a line: microbe, parasite or virus in culture. Particulars: ATCC 700677. Put shortly: as §1
In data set [8] the test system is Vancomycin-resistant (VanA) Enterococcus faecium ATCC 51559. Put plainly: microbe, parasite or virus in culture. The note with it: ATCC 51559. Summed up:
as §1

The nature of data set [9]: Cytotoxicity MTT assay. The note with it: human. Type of data set: cell-based, human. Put shortly:
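Duplicate wells were used, with viability calculated against untreated and positive-control wells. Readout was MTT reduction: 2 h with 0.4 mg mL^−1 MTT, formazan dissolved in DMSO, absorbance at 570 nm. Before that, compound was applied 24 h at 37 °C over 100–0.046 µM (threefold dilutions) to HepG2 or HEK293 cells seeded 24 h earlier in DMEM/1% FBS.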
This is another data set of the same source.

These results are taken from publication PMC5750218, “Protein-inspired antibiotics active against vancomycin- and daptomycin-resistant bacteria” (Nature Communications, 2018).

In brackets after ≈: the same amount, converted by molar mass. Bounds are passed on as bounds.

Method for in vitro: as §2

With `CN[C@H](CC(C)C)C(=O)N[C@H]1C(=O)N[C@@H](CC(N)=O)C(=O)N[C@H]2C(=O)N[C@H]3C(=O)N[C@H](C(=O)N[C@H](C(=O)NCCCC[C@H](NC(=O)[C@H](CCCCN)NC(=O)[C@H](CCCCN)NC(=O)[C@H](CCCCNC(=O)c4ccc(Oc5ccccc5)cc4)NC(=O)c4ccc(Oc5ccccc5)cc4)C(=O)O)c4cc(O)cc(O)c4-c4cc3ccc4O)[C@H](O)c3ccc(c(Cl)c3)Oc3cc2cc(c3O[C@@H]2O[C@H](CO)[C@@H](O)[C@H](O)[C@H]2O[C@H]2C[C@](C)(N)[C@H](O)[C@H](C)O2)Oc2ccc(cc2Cl)[C@H]1O` [Compound 23, POP2K-KK-K(Vancomycin)-OH], in “in vitro”, the amount remaining at 1 h, 20 µM stood at 107%; the amount remaining at 6 h, 20 µM was determined as 103%; the share remaining at 24 h, 20 µM is 99%. Further, in data set [1] (ATCC 6633, 48 h), the “Ac2Kaa concentration required to neutralise MIC activity” value amounted to 200 µg/mL and the MIC is at most 0.004 µg/mL. Moreover, in data set [1] ([ligand]/[antibiotic], B. subtilis ATCC 6633, 24 h), the “Molar excess of Ac2Kaa ligand required to antagonise antibacterial activity” value is 15,102. Also, the CC50 (as a rule, the concentration at which the toxic effect on the cells reaches its halfway point) at 24 h in “Cytotoxicity MTT assay [2]” came to 41 µM. Besides, in data set [3], the “critical micelle concentration (CMC)” value is “exceed 100 µM”. In addition, the “% compound remaining after incubation in 50% human plasma, 0h” value in [4] is 100%. The “MIC MRSA” value in data set [5] is below 0.003 µg/mL. For the same molecule, the “MIC VISA” value in data set [6] came out at 0.5 µg/mL (≈ 212 nM). Besides, the “MIC MDR S.P.” value in [7] is below 0.003 µg/mL. The “MIC VRE” value in [8] worked out at 4 µg/mL (≈ 1700 nM). The molecule also registered a CC50 at 24 h in the data set “Cytotoxicity MTT assay [9]” of 47 µM.
